The text below walks through data of the supplement of paper PMC10899765.

Common to all, as to settings: 20 nM; 72 h
The test system of series [1] is MCF10A. Put plainly: one-nucleolus phenotype percent effect (relative to siNT 0% and siNOL11 100%); higher = more cells with one nucleolus (ribosome biogenesis inhibition). As to the method:
(§1)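 After 72 h, cells were fixed and stained with Hoechst and anti-fibrillarin, and nucleoli per nucleus were counted with CellProfiler. Values are plate-adjusted percent effect for the one-nucleolus and 5+ nucleoli phenotypes, normalised to siNT (0%) and to the positive controls siNOL11 or siKIF11 (100%), as the mean of biological triplicates. Percent viability is the nuclei count relative to siNT.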

Series [2] deals with MCF10A. The series is described as follows: percent viability (nuclei count relative to siNT); higher = more viable cells. As to the method: as §1
Series [3] concerns MCF10A. The series is described as follows: 5+ nucleoli phenotype percent effect (relative to siNT 0% and siKIF11 100%); higher = more cells with five or more nucleoli. As to the method:
as §1

For the sequence “AGCGCGGGCUGAGCGCUGCCAGUC [hsa-miR-2277-5p]”, the “one-nucleolus phenotype percent effect” value in series [1] is 25.5%. Besides, in series [2], the percent viability was found to be 31.3%. Moreover, the “5+ nucleoli phenotype percent effect” value in series [3] is -22.4%.
On the same counts, the results for “GUUUUACCACCUCCAGGAGACU [hsa-miR-2681-5p]” are -33.4%, 36% and 3.14%.
The corresponding values for “AACUCUGUCUUCACUCAUGAGU [hsa-miR-3664-5p]” are -2.78%, 60.5% and 6.12%.
The corresponding values for “AACAUUCAUUGCUGUCGGUGGGU [hsa-miR-181b-5p]” are 1.83%, 93.5% and 10.9%.
For UUGGAGGGUGUGGAAGACAUC [hsa-miR-6515-5p], in series [1], the “one-nucleolus phenotype percent effect” value stood at 40.1%. For the same sequence, the percent viability in series [2] stood at 19%. Moreover, the “5+ nucleoli phenotype percent effect” value in series [3] was -18.5%.
The corresponding values for UCAAAAUGUAGAGGAAGACCCCA [hsa-miR-4698] are -18.4%, 127% and 21.6%.
Consider “ACUUUAACAUGGAAGUGCUUUC [hsa-miR-302b-5p]”, for which the “one-nucleolus phenotype percent effect” value in series [1] was -20.3%. For the same sequence, the percent viability in series [2] came out at 101%. Moreover, the “5+ nucleoli phenotype percent effect” value in series [3] came out at 35.7%.
On the same counts, the results for CAGAUCAUGGGACUGUCUCAG [hsa-miR-5694] are -16.1%, 66.3% and 22.8%.
The corresponding values for AGCCCCCUGGCCCCAAACCC [hsa-miR-4313] are -4.86%, 38.7% and 6.68%.
Regarding ACUUCACCUGGUCCACUAGCCGU [hsa-miR-412], in series [1], the “one-nucleolus phenotype percent effect” value is -11.5%. Further, the percent viability in series [2] was 118%. Also, the “5+ nucleoli phenotype percent effect” value in series [3] worked out at 26%.
As to “AGAUGUCCAGCCACAAUUCUCG [hsa-miR-2964a-5p]”, the “one-nucleolus phenotype percent effect” value in series [1] was found to be 39.4%. In addition, in series [2], the percent viability was 30.3%. Besides, the “5+ nucleoli phenotype percent effect” value in series [3] is -43.9%.
On the same counts, the results for “UGGCAGUUACUUUUGCACCAG [hsa-miR-548au-3p]” are 31.4%, 5.53% and -17.4%.
On the same counts, the results for UCAUCCCCCUCGCCCUCUCAG [hsa-miR-6729-3p] are -21.1%, 58.8% and 10.2%.
The corresponding values for AAAGUGCUUCCUUUUUGAGGG [hsa-miR-520e] are -14.9%, 84.4% and 57.7%.
On to UCGUGGCCUGGUCUCCAUUAU [hsa-miR-1204], for which the “one-nucleolus phenotype percent effect” value in series [1] is -7.25%. For the same sequence, the percent viability in series [2] came out at 48.3%. Moreover, the “5+ nucleoli phenotype percent effect” value in series [3] turned out to be 2.14%.
As for AUAGUGGUUGUGAAUUUACCUU [hsa-miR-4460], the “one-nucleolus phenotype percent effect” value in series [1] was 11.2%. Also, in series [2], the percent viability was 33.9%. Moreover, in series [3], the “5+ nucleoli phenotype percent effect” value is -22.1%.
With “CCGGGAGAAGGAGGUGGCCUGG [hsa-miR-6746-5p]”, the “one-nucleolus phenotype percent effect” value in series [1] was -15.9%. In addition, in series [2], the percent viability worked out at 50.3%. In series [3], the “5+ nucleoli phenotype percent effect” value was 61.4%.
On the same counts, the results for CUCCUGGGGCCCGCACUCUCGC [hsa-miR-1343] are -9.67%, 66.7% and 7.58%.
On the same counts, the results for “UUCACCCCUCUCACCUAAGCAG [hsa-miR-6802-3p]” are -11.2%, 63.6% and 15.5%.
For the sequence AAAAACUGAGACUACUUUUGCA [hsa-miR-548e], the “one-nucleolus phenotype percent effect” value in series [1] is -28.9%. Moreover, in series [2], the percent viability came out at 140%. Also, in series [3], the “5+ nucleoli phenotype percent effect” value was 40.3%.
As to GUGUCUGGGCGGACAGCUGC [hsa-miR-1231], the “one-nucleolus phenotype percent effect” value in series [1] worked out at 62.4%. Moreover, the percent viability in series [2] stood at 39.3%. Also, the “5+ nucleoli phenotype percent effect” value in series [3] is -15.6%.
On the same counts, the results for GGUCCAGAGGGGAGAUAGGUUC [hsa-miR-198] are -9.26%, 51.6% and 5.19%.
On the same counts, the results for AGCUACAGUUACUUUUGCACCA [hsa-miR-548v] are -5.59%, 68.4% and -8.87%.
On to GCAGUCCAUGGGCAUAUACAC [hsa-miR-455-3p], for which the “one-nucleolus phenotype percent effect” value in series [1] was -12.4%. For the same sequence, the percent viability in series [2] came to 112%. Moreover, in series [3], the “5+ nucleoli phenotype percent effect” value worked out at 26.8%.
UAAAGUGCUGACAGUGCAGAU [hsa-miR-106b-5p]: in series [1], the “one-nucleolus phenotype percent effect” value is -11.2%. Besides, in series [2], the percent viability turned out to be 91.2%. Also, the “5+ nucleoli phenotype percent effect” value in series [3] came to 5.03%.
On to AGGGCAUAGGAGAGGGUUGAUAU [hsa-miR-3945], for which the “one-nucleolus phenotype percent effect” value in series [1] was -1.06%. Moreover, the percent viability in series [2] was 27.2%. The “5+ nucleoli phenotype percent effect” value in series [3] stood at 34.8%.
The corresponding values for “ACAGAGGACAGUGGAGUGUGAGC [hsa-miR-6847-5p]” are -1.08%, 51.1% and -1.34%.
The corresponding values for “UAAUGCCCCUAAAAAUCCUUAU [hsa-miR-365b-3p]” are 5.41%, 37.9% and -12.3%.
For UGCUUCCUUUCUCAGCUG [hsa-miR-7162-5p], the “one-nucleolus phenotype percent effect” value in series [1] came out at 0.399%. Further, the percent viability in series [2] worked out at 64.9%. Further, the “5+ nucleoli phenotype percent effect” value in series [3] was -13.8%.
The corresponding values for AAUGAGAGACCUGUACUGUAU [hsa-miR-4712-3p] are 34.8%, 7.13% and -22.6%.
The corresponding values for AGCAGAAGCAGGGAGGUUCUCCCA [hsa-miR-298] are 17.9%, 25.9% and -22.8%.
The corresponding values for “AAAAGUAAUUGCGGUUUUUGCC [hsa-miR-548o-5p]” are -26.8%, 119% and 43.1%.
Take CUGAACUAGAGAUUGGGCCCA [hsa-miR-7158-3p]: the “one-nucleolus phenotype percent effect” value in series [1] is 16%. For the same sequence, the percent viability in series [2] was 32.7%. The “5+ nucleoli phenotype percent effect” value in series [3] was -10.2%.
On the same counts, the results for “ACUUUAACAUGGAGGCACUUGC [hsa-miR-302d-5p]” are -13.5%, 92.5% and 29.1%.
On the same counts, the results for GGGUCCCGGGGAGGGGGG [hsa-miR-4281] are -17.2%, 100% and 25.6%.
On the same counts, the results for “AAGUUCUGUUAUACACUCAGGC [hsa-miR-148b-5p]” are 11.3%, 37.1% and -28.2%.
For “CCAGUAUUAACUGUGCUGCUGA [hsa-miR-16-1-3p]”, in series [1], the “one-nucleolus phenotype percent effect” value turned out to be 7.96%. For the same sequence, in series [2], the percent viability amounted to 85.1%. Further, the “5+ nucleoli phenotype percent effect” value in series [3] is -19.3%.
Turning to “CUCUAGAGGGAAGCACUUUCUG [hsa-miR-518d-5p]”, the “one-nucleolus phenotype percent effect” value in series [1] is -4.59%. In addition, the percent viability in series [2] amounted to 57.8%. Besides, the “5+ nucleoli phenotype percent effect” value in series [3] worked out at 5.06%.
For the sequence UCUGAAUAGAGUCUGAAGAGU [hsa-miR-4427], the “one-nucleolus phenotype percent effect” value in series [1] is -23.1%. Besides, the percent viability in series [2] came to 71.5%. The “5+ nucleoli phenotype percent effect” value in series [3] came out at 39.9%.
On the same counts, the results for AAGGGGCUGGGGGAGCACA [hsa-miR-6085] are 33.3%, 22% and -17.6%.
The corresponding values for AAUGUGGAAGUGGUCUGAGGCAU [hsa-miR-4657] are 10.1%, 30.7% and 6.84%.
The corresponding values for UAUGUAACACGGUCCACUAACC [hsa-miR-411-3p] are -6.25%, 76% and 22.1%.
Take UCAGGGUUGGUAGGGGUUGCU [hsa-miR-6823-5p]: the “one-nucleolus phenotype percent effect” value in series [1] was 19.8%. The percent viability in series [2] is 22.1%. Also, the “5+ nucleoli phenotype percent effect” value in series [3] was -11.9%.
Consider “UGAUUGUCUUCCCCCACCCUCA [hsa-miR-6766-3p]”, for which the “one-nucleolus phenotype percent effect” value in series [1] was 1.17%. In addition, the percent viability in series [2] was determined as 43.1%. In series [3], the “5+ nucleoli phenotype percent effect” value is -20.7%.
On the same counts, the results for ACCCUAUCAAUAUUGUCUCUGC [hsa-miR-454-5p] are -29.8%, 81.2% and 45.6%.
The corresponding values for UAUGCAUUGUAUUUUUAGGUCC [hsa-miR-586] are -12.9%, 94.9% and 54%.
For the sequence “CUGCCCUAGUCUAGCUGAAGCU [hsa-miR-3157-3p]”, the “one-nucleolus phenotype percent effect” value in series [1] was -21.2%. In addition, the percent viability in series [2] amounted to 170%. In series [3], the “5+ nucleoli phenotype percent effect” value came to 27.8%.
On the same counts, the results for “GUGCGUGGUGGCUCGAGGCGGGG [hsa-miR-6821-5p]” are -27.7%, 82.1% and 24.3%.
